Results on 2 molecules are retold here after patent publication US20220396612A1 (UNIVERSIT DE TOURS, published 2022).

In experiment [1] the target is T1, virus-like particles (VLPs) of BK polyomavirus VP-1 protein, serotype Ia (BK virus (BKPyV), serotype Ia, UniProt P03088 1-361).
T1 construct: self-assembled native VLPs coated on ELISA plates; also called VLP Ia; BKV VP-1, serotype Ia
T1 chain: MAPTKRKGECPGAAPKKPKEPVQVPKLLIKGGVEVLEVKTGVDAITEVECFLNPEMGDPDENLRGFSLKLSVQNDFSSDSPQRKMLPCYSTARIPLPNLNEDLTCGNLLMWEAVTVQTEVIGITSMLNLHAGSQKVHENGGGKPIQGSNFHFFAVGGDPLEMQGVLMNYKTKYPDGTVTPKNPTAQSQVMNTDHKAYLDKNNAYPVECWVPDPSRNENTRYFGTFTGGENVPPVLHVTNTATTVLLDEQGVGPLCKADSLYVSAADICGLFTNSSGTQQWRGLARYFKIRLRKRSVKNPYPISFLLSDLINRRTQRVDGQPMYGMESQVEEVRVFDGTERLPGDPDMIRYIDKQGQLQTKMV
Nature of the experiment: ELISA on coated VLP; supernatant 1/20. (In general: An ELISA detects its analyte on a solid surface through an enzyme-linked reagent.)
Method: (§1) To do this, the VLPs produced were deposited at a concentration of 1 μg/mL in PBS and incubated overnight at +4° C. The wells were then blocked for 1 h at +37° C. with a PBS/FCS (phosphate-buffered saline/fetal calf serum) mixture. After dilution in a dilution buffer containing FCS, PBS and Tween® 20, the various hybridoma culture supernatants were added for 1 h at +37° C. The wells were washed four times in a row with Wash Buffer and a secondary anti-mouse antibody coupled to peroxidase was added to the 1:2000 dilution for 1 h at +37° C. The wells were washed four more times and the substrate (OPD (ortho phenylene diamine)+H₂O₂) was added for 30 min at room temperature. A stop solution (H₂SO₄ 4N) was then added and each well was read by measuring the absorbance at 492 nm with a spectrophotometer. The value obtained for the average of the control wells (PBS in the first step) is subtracted from the optical density values obtained for each well.

Experiment [2] addresses T2, virus-like particles (VLPs) of BK polyomavirus VP-1 protein, serotype Ib2 (BK virus (BKPyV), serotype Ib2, PA …, UniProt P03088 1-362).
T2 construct: native VLPs; also the immunogen; also called VLP Ib2; BK Ib2
T2 chain: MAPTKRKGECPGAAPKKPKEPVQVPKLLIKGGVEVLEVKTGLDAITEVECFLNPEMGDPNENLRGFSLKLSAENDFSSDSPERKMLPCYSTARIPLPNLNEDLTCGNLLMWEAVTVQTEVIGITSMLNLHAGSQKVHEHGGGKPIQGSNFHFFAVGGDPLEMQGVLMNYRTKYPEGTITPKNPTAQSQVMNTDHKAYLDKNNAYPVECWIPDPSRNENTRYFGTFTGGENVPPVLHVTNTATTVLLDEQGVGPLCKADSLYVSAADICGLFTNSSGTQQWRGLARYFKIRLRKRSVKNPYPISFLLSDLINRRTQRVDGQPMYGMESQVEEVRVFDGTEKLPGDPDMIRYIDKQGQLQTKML
The experiment is described as follows: ELISA on coated VLP; supernatant 1/20.
Method: as §1

Experiment [3] has as its target T3, virus-like particles (VLPs) of BK polyomavirus VP-1 protein, serotype II (BK virus (BKPyV), serotype II, UniProt P14996 1-362).
T3 construct: native VLPs; also called VLP II
T3 chain: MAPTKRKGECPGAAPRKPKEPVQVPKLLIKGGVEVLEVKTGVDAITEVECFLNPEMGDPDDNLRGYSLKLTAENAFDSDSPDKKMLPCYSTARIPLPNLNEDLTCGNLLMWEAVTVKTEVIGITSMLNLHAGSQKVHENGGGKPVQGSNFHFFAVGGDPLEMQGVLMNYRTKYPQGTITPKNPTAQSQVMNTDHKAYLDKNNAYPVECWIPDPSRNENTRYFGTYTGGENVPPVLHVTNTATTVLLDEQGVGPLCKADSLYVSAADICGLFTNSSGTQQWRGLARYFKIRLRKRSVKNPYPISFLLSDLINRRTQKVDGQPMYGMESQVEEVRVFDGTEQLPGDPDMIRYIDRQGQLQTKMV
Nature of the experiment: ELISA on coated VLP; supernatant 1/20.
Method: as §1

Experiment [4] has as its target T4, virus-like particles (VLPs) of BK polyomavirus VP-1 protein, serotype IV (BK virus (BKPyV), serotype IV, UniProt P14996 1-362).
T4 construct: native VLPs; also called VLP IV
T4 chain: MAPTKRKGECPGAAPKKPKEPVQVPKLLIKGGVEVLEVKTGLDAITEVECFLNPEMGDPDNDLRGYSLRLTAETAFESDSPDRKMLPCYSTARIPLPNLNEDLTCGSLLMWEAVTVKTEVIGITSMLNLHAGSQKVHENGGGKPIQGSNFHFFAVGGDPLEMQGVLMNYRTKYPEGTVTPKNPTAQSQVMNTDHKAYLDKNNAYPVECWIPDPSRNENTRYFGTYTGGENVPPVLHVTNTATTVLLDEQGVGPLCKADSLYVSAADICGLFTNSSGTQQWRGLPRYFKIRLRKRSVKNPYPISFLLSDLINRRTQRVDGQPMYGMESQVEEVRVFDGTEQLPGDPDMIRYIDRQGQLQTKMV
Nature of the experiment: ELISA on coated VLP; supernatant 1/20.
Method: as §1

For experiment [5], the target named is T1, virus-like particles (VLPs) of BK …. Nature of the experiment: ELISA on coated VLP; supernatant 1/2 560.
Method: as §1
In experiment [6] the target is T2, virus-like particles (VLPs) of BK …. The experiment is described as follows: ELISA on coated VLP; supernatant 1/2 560.
Method: as §1
The target in experiment [7] is T3, virus-like particles (VLPs) of BK …. The experiment is described as follows: ELISA on coated VLP; supernatant 1/2 560.
Method: as §1
For experiment [8], the target named is T4, virus-like particles (VLPs) of BK …. Nature of the experiment: ELISA on coated VLP; supernatant 1/2 560.
Method: as §1
The target in experiment [9] is T1, virus-like particles (VLPs) of BK …. The experiment is described as follows: ELISA on coated VLP; supernatant 1/5 120.
Method: as §1
The target of experiment [10] is T2, virus-like particles (VLPs) of BK …. Nature of the experiment: ELISA on coated VLP; supernatant 1/5 120.
Method: as §1
For experiment [11], the target named is T3, virus-like particles (VLPs) of BK …. Nature of the experiment: ELISA on coated VLP; supernatant 1/5 120.
Method: as §1
Experiment [12] has as its target T4, virus-like particles (VLPs) of BK …. Nature of the experiment: ELISA on coated VLP; supernatant 1/5 120.
Method: as §1
Experiment [13] deals with T2, virus-like particles (VLPs) of BK …. The experiment is described as follows: ELISA on coated VLP; supernatant 1/10 240.
Method: as §1

B1: monoclonal antibody ‘F6’ secreted by clone BK6A2F6 (antibody)
heavy: EVQLQQSGPELVKPGASVKISCKASGYSFTGYFMNWVKQSHGKSLEWIGRINPYNGDTFYNQKFKGKATLTVDKSSSTAHMELLSLTSEDSAVYYCGSYYYGDYFDYWGQGTTLTVSSAKTTPPSVYPLAPGSAAQTNSMVTLGCLVKGYFPEPVTVTWNSGSLSSGVHTFPAVLQSDLYTLSSSVTVPSSTWPSETVTCNVAHPASSTKVDKKIVPRDCGCKPCICTVPEVSSVFIFPPKPKDVLTITLTPKVTCVVVDISKDDPEVQFSWFVDDVEVHTAQTQPREEQFNSTFRSVSELPIMHQDWLNGKEFKCRVNSAAFPAPIEKTISKTKGRPKAPQVYTIPPPKEQMAKDKVSLTCMITDFFPEDITVEWQWNGQPAENYKNTQPIMDTDGSYFVYSKLNVQKSNWEAGNTFTCSVLHEGLHNHHTEKSLSHSPGK
light: […]
Take B1: the “OD 492 nm” value in experiment [1] came to 3.23 OD; in experiment [2] it was 1.22 OD; in experiment [3] it was 1.65 OD; in experiment [4], 3.16 OD; in experiment [5], 1.06 OD; in experiment [6] it was 0.09 OD. The “OD 492 nm” value in experiment [7] is 0.07 OD; in experiment [8], 1.28 OD; in experiment [9] it was 0.57 OD; in [10] it was 0.08 OD; in experiment [11], 0.07 OD; in [12], 0.77 OD. The “OD 492 nm” value in experiment [13] amounted to 0.08 OD.

B2: monoclonal antibody ‘H6’ secreted by clone BK6A2H6 (antibody, V domains shown)
VH: EVQLQQSGPELVKPGASVKISCKASGYSFTGYFMNWVKQSHGKSLEWIGRINPYNGDTFYNQKFKGKATLTVDKSSSTAHMELLSLTSEDSAVYYCGSYYYGDYFDYWGQGTTLTVSS
VL: SIVMTQIPKFLLVSEGDRVTITCKASQSVSNDVAWYQQKSGQSPKLLIYYASNRYTGVPDRFTGSGYGTDFTFTISTVQAEDLAVYFCQQDYSSPLTFGAGTKLELKR
As for B2, the “OD 492 nm” value in [1] came out at 3.06 OD; in [2], 0.82 OD; in experiment [3], 0.86 OD; in experiment [4], 3.21 OD; in [5], 0.46 OD; in [6], 0.1 OD. Besides, the “OD 492 nm” value in experiment [7] came out at 0.06 OD; in experiment [8], 0.54 OD; in experiment [9], 0.86 OD; in [10] it was 0.09 OD; in [11], 0.05 OD; in experiment [12] it was 0.26 OD. In [13], the “OD 492 nm” value turned out to be 0.06 OD.
